This note sets out measurements from patent WO2007014992A2 (dated 2007).

This assay addresses T1, human LDL (Low Density Lipoprotein) receptor (human, UniProt P01130 22-860).
T1 construct: whole, on cells; Endogenous receptor on human A549 and MDA-MB-231 cells (flow cytometry); also called LDL-R; human LDL-R
Nature of the assay: Western blot of total protein extracts of MDA-MB-231 cells.

T1 sequence (P01130 22-860): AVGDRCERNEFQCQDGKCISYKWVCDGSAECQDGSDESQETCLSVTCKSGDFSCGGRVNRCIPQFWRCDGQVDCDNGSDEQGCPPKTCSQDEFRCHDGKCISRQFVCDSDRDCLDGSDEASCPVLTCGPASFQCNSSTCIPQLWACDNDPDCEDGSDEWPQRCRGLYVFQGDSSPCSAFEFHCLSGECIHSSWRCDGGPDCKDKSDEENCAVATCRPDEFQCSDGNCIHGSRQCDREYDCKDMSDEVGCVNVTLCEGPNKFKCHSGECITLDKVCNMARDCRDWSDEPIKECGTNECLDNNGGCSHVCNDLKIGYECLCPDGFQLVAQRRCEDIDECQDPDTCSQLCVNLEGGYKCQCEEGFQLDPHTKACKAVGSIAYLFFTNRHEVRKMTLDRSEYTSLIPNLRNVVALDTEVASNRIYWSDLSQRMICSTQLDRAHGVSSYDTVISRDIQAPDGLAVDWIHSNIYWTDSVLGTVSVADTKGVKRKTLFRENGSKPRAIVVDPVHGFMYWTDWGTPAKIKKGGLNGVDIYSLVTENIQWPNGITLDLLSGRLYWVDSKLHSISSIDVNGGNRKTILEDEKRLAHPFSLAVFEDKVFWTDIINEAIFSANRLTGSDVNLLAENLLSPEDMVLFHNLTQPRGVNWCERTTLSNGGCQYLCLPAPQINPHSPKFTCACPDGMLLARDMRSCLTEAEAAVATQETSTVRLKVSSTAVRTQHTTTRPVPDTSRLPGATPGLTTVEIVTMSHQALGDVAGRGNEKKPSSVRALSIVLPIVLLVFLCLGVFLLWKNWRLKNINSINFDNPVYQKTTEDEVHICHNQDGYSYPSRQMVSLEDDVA

B1: Anti-LDL-R 5E5 monoclonal antibody produced by the hybridoma H5E5 (CNCM I-3488) (antibody, V domains shown)
VH: QVQLQQSGPELVRPGVSVKISCKGSGYTFTDYAMHWVKQSHAQSLEWIGFISTYSGNTNYNQKFKGRATMTVDKSSSTAYMELARLTSEDSAIYYCARPNYYGSSPGGFAYWGQGTLVTVSA
VL: ENVLTQSPAIMSASLGEKVTMSCRARSSVNYMYWYQQKSDASPKLWIYYTSNLAPGVPARFSGSGSGNSYSLTISSMEGEDAATYYCQQFTSSPSFGGGTKLEIK
notes: also called anti-LDL-R 5E5 antibodies; murine antibody 5E5
Take B1: the binding result was “binds”.
